# ± gives the standard deviation of the averaged measurements.
# Test system: VchCAST RNA-guided transposition machinery (E. coli BL21(DE3) host, lacZ target)
# Assay: relative integration efficiency (T-RL orientation) vs wild-type transposon end (log2 (normalized fold change)); transposon end mutated: left end; higher = more efficient transposition
# Protocol: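 Pooled, barcoded VchCAST (Tn6677) mini-transposon donor libraries; each variable transposon-end sequence sits in a fixed pDonor mini-transposon context (10-bp barcode and cargo not included). Left- or right-end libraries were co-transformed with pEffector (TniQ-Cascade, TnsABC, lacZ crRNA, T7, 0.1 mM IPTG) into E. coli BL21(DE3) and grown 18 h at 37 C. T-LR and T-RL junction amplicons were sequenced; output/input barcode fold change was normalised to the mean of four wild-type barcodes and log2-transformed. Two biological replicates; zero-count/undetected variants carry floor values (-10 / -15), censored here. Barcode uncoupling by PCR recombination adds noise.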
row,Sequence,relative integration efficiency (log2)
1,AATGTTGTTGATGCAACCATAAAGTGATATTTAATAATTATTTATAATCAGCAACTTAACCACAAAATGTGAATCGAGTATTTCAGCCAACCATATATTGATATCTCACAAAACAACCATAAGTTGATATTTTAAAACTACTGCAGTAAGAA,-5.8 ± 1.9
2,AATGTTGTTGATGCAACCATAAAGTGATATTTAATAATTATTTATAATCAGCAACTTAACCACAAACACCAACGCGCGGTCGCGAGACACCCCACCAACGCCTGGTCGCGGGGGTGTCCGATCTGATTTCAGCAAAACTACTGCAGTAAGAA,-6.34 ± 0.81
3,AATGTTGTTGATGCAACCATAAAGTGATATTTAATAATTATTTATAATCAGCAACTTAACCACAACCATATATTGATATCTCACAAAACAACCATAAGTTGATATTTTTGTGAATCGAGTATTTCAGCAAAACTACTGCAGTAAGAAAGTTA,-5.27 ± 0.97
4,AATGTTGTTGATGCAACCATAAAGTGATATTTAATAATTATTTATAATCAGCAACTTAACCACCAACCATATATTGATATCTCAAAAACAAAACAACCATAAGTTGATATTTTTGTGAATCGAGTATTTCAGCAAAACTACTGCAGTAAGAA,-2.83 ± 0.93
5,AATGTTGTTGATGCAACCATAAAGTGATATTTAATAATTATTTATAATCAGCAACTTAACCACCAACCATATATTGATATCTCACAAAACAACCATAAGTTGATATTTTTGTGAATCGAGTATTTCAGCAAAACTACTGCAGTAAGAAAGTT,-4.85 ± 1.1
6,AATGTTGTTGATGCAACCATAAAGTGATATTTAATAATTATTTATAATCAGCAACTTAACCACCCCCACCAACGCGCGGTCGCGAGACACCCCACCAACGCCTGGTCGCGGGGGTGTCCGATCTGATTTCAGCAAAACTACTGCAGTAAGAA,-6.56 ± 0.76
7,AATGTTGTTGATGCAACCATAAAGTGATATTTAATAATTATTTATAATCAGCAACTTAACCCAACCATATATTGATATCTCACAAAAACAAAACAACCATAAGTTGATATTTTTGTGAATCGAGTATTTCAGCAAAACTACTGCAGTAAGAA,-3.11 ± 0.98
8,AATGTTGTTGATGCAACCATAAAGTGATATTTAATAATTATTTATAATCAGCAACTTAACCCAACCATATATTGATATCTCACAAAACAACCATAAGTTGATATTTTTGTGAATCGAGTATTTCAGCAAAACTACTGCAGTAAGAAAGTTAC,-7.05 ± 1.7
9,AATGTTGTTGATGCAACCATAAAGTGATATTTAATAATTATTTATAATCAGCAACTTAACCCACCCCACCAACGCGCGGTCGCGAGACACCCCACCAACGCCTGGTCGCGGGGGTGTCCGATCTGATTTCAGCAAAACTACTGCAGTAAGAA,-6.3 ± 1.9
10,AATGTTGTTGATGCAACCATAAAGTGATATTTAATAATTATTTATAATCAGCAACTTACAACACCCCACCAACGCGCGGTCGCGAGACACCCCACCAACGCCTGGTCGCGGGGGTGTCCGATCTGATTTCAGCAAAACTACTGCAGTAAGAA,-5.66 ± 1.2
11,AATGTTGTTGATGCAACCATAAAGTGATATTTAATAATTATTTATAATCAGCAACTTCCAACACCCCACCAACGCGCGGTCGCGAGACACCCCACCAACGCCTGGTCGCGGGGGTGTCCGATCTGATTTCAGCAAAACTACTGCAGTAAGAA,-4.36 ± 1.2
12,AATGTTGTTGATGCAACCATAAAGTGATATTTAATAATTATTTATAATCAGCCAACCATATATTGATATCTCAACTTAACCACAAAAACAAAACAACCATAAGTTGATATTTTTGTGAATCGAGTATTTCAGCAAAACTACTGCAGTAAGAA,-7.27 ± 2.4
13,AATGTTGTTGATGCAACCATAAAGTGATATTTAATAATTATTTATAATCAGCCAACCATATATTGATATCTCACAAAACAACCATAAGTTGATATTTTAACTTAACCACAAAATGTGAATCGAGTATTTCAGCAAAACTACTGCAGTAAGAA,-6.91 ± 2.5
14,AATGTTGTTGATGCAACCATAAAGTGATATTTAATAATTATTTATAATCATACCAGGCCAACACCCCACCAACGCGCGGTCGCGAGACACCCCACCAACGCCTGGTCGCGGGGGTGTCCGATCTGATTTCAGCAAAACTACTGCAGTAAGAA,-6.02 ± 1.1
15,AATGTTGTTGATGCAACCATAAAGTGATATTTAATAATTATTTATAATCATTGTGAGCGGATAACAACAACCATATATTGATATCTCACAAAACAACCATAAGTTGATATTTTTGTGAATCGAGTATTTCAGCAAAACTACTGCAGTAAGAA,-3.2 ± 0.53
16,AATGTTGTTGATGCAACCATAAAGTGATATTTAATAATTATTTATAATCCAACCATATATTGATATCTCACAAAACAACCATAAGTTGATATTTTTGTGAATCGAGTATTTCAGCAAAACTACTGCAGTAAGAAAGTTACTTCGTGGTATGG,-6.76 ± 0.87
17,AATGTTGTTGATGCAACCATAAAGTGATATTTAATAATTATTTATAATCCAACCATATATTGATATCTCAGCAACTTAACCACAAAAACAAAACAACCATAAGTTGATATTTTTGTGAATCGAGTATTTCAGCAAAACTACTGCAGTAAGAA,-5.59 ± 1.3
18,AATGTTGTTGATGCAACCATAAAGTGATATTTAATAATTATTTATACAACCATATATTGATATCTCACAAAACAACCATAAGTTGATATTTTTGTGAATCGAGTATTTCAGCAAAACTACTGCAGTAAGAAAGTTACTTCGTGGTATGGGAG,-6.01 ± 0.81
19,AATGTTGTTGATGCAACCATAAAGTGATATTTAATAATTATTTATCCGACTACCAGGCCAACACCCCACCAACGCGCGGTCGCGAGACACCCCACCAACGCCTGGTCGCGGGGGTGTCCGATCTGATTTCAGCAAAACTACTGCAGTAAGAA,-6.94 ± 1.3
20,AATGTTGTTGATGCAACCATAAAGTGATATTTAATAATTATTTCAACCATAAAGTGATATTTAACTTCAACCATATATTGATATCTCACAAAACAACCATAAGTTGATATTTTTGTGAATCGAGTATTTCAGCAAAACTACTGCAGTAAGAA,-6.43 ± 0.89
21,AATGTTGTTGATGCAACCATAAAGTGATATTTAATAATTATTTCAACCATATATTGATATCTCATAATCAGCAACTTAACCACAAAAACAAAACAACCATAAGTTGATATTTTTGTGAATCGAGTATTTCAGCAAAACTACTGCAGTAAGAA,-5.79 ± 0.8
22,AATGTTGTTGATGCAACCATAAAGTGATATTTAATAATTCAACCATAAAGTGATATTTAACTTAACCCAACCATATATTGATATCTCACAAAACAACCATAAGTTGATATTTTTGTGAATCGAGTATTTCAGCAAAACTACTGCAGTAAGAA,-4.15 ± 0.95
23,AATGTTGTTGATGCAACCATAAAGTGATATTTAATAATTCGGGCGCCGACTACCAGGCCAACACCCCACCAACGCGCGGTCGCGAGACACCCCACCAACGCCTGGTCGCGGGGGTGTCCGATCTGATTTCAGCAAAACTACTGCAGTAAGAA,-7.09 ± 1
24,AATGTTGTTGATGCAACCATAAAGTGATATTTATACCGTTCGTATACGATACATTATACGAAGTTATCAACCATATATTGATATCTCACAAAACAACCATAAGTTGATATTTTTGTGAATCGAGTATTTCAGCAAAACTACTGCAGTAAGAA,-4.08 ± 1.3
25,AATGTTGTTGATGCAACCATAAAGTGATATTTATATTAATAAATATTAGTCGTTGAATTGGTGTTTTCAACCATATATTGATATCTCACAAAACAACCATAAGTTGATATTTTTGTGAATCGAGTATTTCAGCAAAACTACTGCAGTAAGAA,-3.31 ± 1.4
26,AATGTTGTTGATGCAACCATAAAGTGATATTTATATTCTAAATGTTGATTAATTTGAATCATCATCTCAACCATATATTGATATCTCACAAAACAACCATAAGTTGATATTTTTGTGAATCGAGTATTTCAGCAAAACTACTGCAGTAAGAA,-5.04 ± 1
